Here are results for four molecules from patent US20100292104A1 (LAWRENCE LIVERMORE NATIONAL SECURITY, published 2010).

In the assay the target is Maltose Binding Protein (MBP)-N-intein fusion protein (Synechocystis sp. PCC6803, UniProt P74750 771-897). Kind of assay: cell-based or functional assay.

B1: DnaE C-intein polypeptide photocaged at Gly19 (peptide)
peptide: not shown
modifications: Gly19 backbone amide caged with nitroveratryl (1,2-dimethoxy-4-methyl-3-nitro-benzyl) group; C-terminal PEGylated thiol linker; Cys37 protected as S-tBu during synthesis
For the molecule B1, the “trans-splicing activity relative to the non-photocaged C-intein polypeptide” value is roughly 30%.

B2: DnaE C-intein polypeptide photocaged at Gly11 (peptide)
peptide: not shown
modifications: Gly11 backbone amide caged with nitroveratryl (1,2-dimethoxy-4-methyl-3-nitro-benzyl) group; C-terminal PEGylated thiol linker; Cys37 protected as S-tBu during synthesis
On to B2, for which the “trans-splicing activity relative to the non-photocaged C-intein polypeptide” value is roughly 60%.

B3: DnaE C-intein polypeptide photocaged at Gly6 (peptide)
peptide: not shown
modifications: Gly6 backbone amide caged with nitroveratryl (1,2-dimethoxy-4-methyl-3-nitro-benzyl) group; C-terminal PEGylated thiol linker; Cys37 protected as S-tBu during synthesis
Take B3: the “trans-splicing activity relative to the non-photocaged C-intein polypeptide” value is roughly 30%.

B4: DnaE C-intein polypeptide photocaged at Gly31 (peptide)
peptide: not shown
modifications: Gly31 backbone amide caged with nitroveratryl (1,2-dimethoxy-4-methyl-3-nitro-benzyl) group; C-terminal PEGylated thiol linker; Cys37 protected as S-tBu during synthesis
Take B4: the “trans-splicing activity relative to the non-photocaged C-intein polypeptide” value was found to be 10%.
